Results from the supplement of paper PMC10567573.

B1: KRT71 (parent)
chain: ELRNVQDVVEDYKKRYEEEINKRT
B2: RHOBTB3 (parent)
chain: QLQSMPSRELASMNLDIVDLLKKA

Variants of: B1
Assay: protein stability index of a GFP-peptide fusion (GPS, HEK-293T) (PSI 1-6); higher = more stable
Conditions: c terminus: a fixed tail appended
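Further: lentivirally expressed fusions sorted by FACS into six bins by GFP to DsRed ratio, PSI derived from sequencing read proportions per bin multiplied by bin number.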

Protein stability index: each site, then its substitutions
T24: Q 4.56; L 3.58; K 4.43; Y 3.18; P 4.39; V 3.69; I 4.02; N 3.14; M 3.54; G 3.94; W 3.62; R 4.41; F 2.85; S 3.4

Variants of: B2
Assay: as above
Conditions: c terminus: a fixed tail appended

Protein stability index, by site and new letter:
E9: F 2.92; D 2.63; N 3.4; T 3.61; G 2.9; R 2.15; V 3.04; P 2.78; A 3.1; C 2.7; M 2.31; Q 2.7; H 2.99
M13: R 3.61; F 2.97; S 3.35; V 3.7; H 3.59; E 4.19; L 3.52; Q 3.79; Y 3.17; C 3.74; K 3.8; W 2.88; A 4; N 4.17; P 4.01; T 3.38
L10: T 4.32; K 3.02; P 3.83; H 3.24; Q 3.63; W 3.25; D 4.09; I 2.95; G 2.62; R 3.71; S 4.49; M 3.58; A 4.18
Q1: L 2.55; P 4.72; R 3.72; W 2.62; H 2.92; T 3.66; F 2.95; K 4.12; M 3.38; G 3.51; E 3.01; V 2.98; I 2.71; C 2.86; S 2.75
L15: M 3.86; A 3.67; E 3.94; H 3.98; F 3.44; V 3.35; Q 3.72; N 3.45; G 3.99; K 4.45; D 3.23; C 4.27; S 3.79; R 3.58; Y 3.87
A24: V 3.34; I 2.98; F 3.41; E 4.56; D 4.65; M 3.39; R 3.11; Q 3.49; G 3.92; T 3.95; S 3.47; Y 3.35; C 3.14; L 3.56; P 3.92
K22: A 3.01; H 3.67; V 2.15; E 4.71; Q 3.93; N 4.23; Y 2.61; M 2.9; S 3.55; P 3.57; W 2.04; C 2.76; G 3.75; I 2.32
Q3: L 2.68; Y 2.75; I 3.18; S 3.44; N 2.56; G 3.85; P 4.39; R 4.02; T 3.38; E 3.7; V 2.98
P6: C 2.5; T 3.46; F 1.93; K 3.77; A 3.19; G 2.91; H 2.05; Y 1.88; W 1.85; D 3.38; N 3.55; I 2.03
M5: Y 2.01; F 3.33; T 3.94; N 2.78; G 2.58; R 3.46; K 4.06; E 3.54; H 3.43; S 3.76; I 2.95
K23: W 1.3; C 2.57; H 3.05; F 2.33; L 2.58; E 3.69; A 2.92; D 4.03; I 2.48; V 2.81; R 3.52
S7: I 2.42; D 3.9; M 2.51; Q 3.77; N 2.98; K 2.97; H 4.55; P 4.46; A 3.59; G 2.66; W 5; C 2.69; R 4.13; Y 3
D19: N 3.15; V 2.16; R 2.99; Y 2.28; C 2.96; E 3.37; T 2.85; W 2.16; G 2.52; A 3; S 3.45; I 1.86; K 3.08; H 2.93; F 2.01
N14: E 3.62; F 1.79; I 2.61; G 3.68; P 3.78; K 3.75; V 1.9; C 2.16; A 2.87; D 3.92; S 3.31
L21: N 3.27; Q 3.87; K 3.01; D 4.67; I 3.56; R 3.93; S 4.12; Y 2.96; F 3; W 3.35; V 4.12; H 4.33; C 3.47; A 3.47
V18: M 3.41; F 2.39; H 3.5; D 3.96; E 4.19; G 3.65; S 4.08; P 3.21; K 3.21; I 3.28; T 3.77; C 3.69; Q 3.89; Y 2.6
L20: D 4.68; V 2.9; Y 3.95; S 4.06; K 4.33; G 4.62; N 3.71; T 3.96; W 3.51; M 3.75; R 3.94; Q 3.9; P 4.31; C 3.86
S4: L 3.23; D 3.82; V 3.11; A 3; E 4.83; G 3.82; T 3.64; W 3.6; H 3.24; R 3.06; P 3.54; Y 3.75; F 3.19; I 3.78; M 3.28; N 2.78
D16: L 2.63; M 2.53; C 3.25; F 2.09; H 2.76; G 3.63; P 2.75; K 2.91; A 2.15; Q 3.57; V 2.22; N 2.88
L2: I 3.16; K 3.18; Q 3.78; V 2.77; E 4.29; C 4.45; F 3.04; M 3.83; N 3.71; A 3.21; W 3.31; T 3.55
I17: R 3.4; A 3.63; P 3.39; V 3.89; T 3.58; N 3.88; Y 3.74; S 4.37; D 4.23; G 3.46; M 3.39
R8: Y 2.66; M 3.2; E 4.28; K 3.38; D 4.11; F 2.65; C 3.85; V 3.83; A 4.22; L 2.35; I 2.33
S12: K 3.63; V 3.95; L 3.54; R 2.13; T 3.75; F 3.22; I 3.02; Q 4.1; C 3.33; G 3.9; H 3.06; P 4.11; N 3.06; A 3.28; Y 2.95; E 4.26
A11: T 3.28; M 3.34; L 3.11; H 3.21; D 3.75; I 2.87; S 3.54; F 2.76; W 2.79; N 3.29; Q 3.37; E 3.73; C 3.17; Y 2.86
